Drawing on paper PMC3677933, “Identification of Class I HLA T Cell Control Epitopes for West Nile Virus” (PLoS ONE, 2013), this text covers IC50 for twelve substances.

Ends that are not written are not given here.

The target of the first assay is HLA-A*11:01 (fluorescence polarisation peptide-binding assay). The assay can be described thus: fluorescence polarisation; competitive binding assay of synthetic peptide with HLA-A*11:01 (Pure Protein L.L.C. method, ref. 45); IC50 <5,000 nM categorised as high affinity. (In general: Polarisation of emitted light reports the rotation of a fluorescent probe.)
As a reminder, the IC50 is the concentration that gives 50% inhibition. In the case of “KSY9 synthetic peptide (WNV NS3 1894-1902)”, the IC50 turned out to be 7.88 µM.

With “RVL9 synthetic peptide (WNV capsid 23-31)”, the IC50 worked out at 0.334 µM.

Substance “GTL9 synthetic peptide (WNV capsid 89-97)” had an IC50 of 1.13 µM.

In turn, “AII11 synthetic peptide (WNV NS5 2559-2569)” gave an IC50 of 11.2 µM.

“KNM9 synthetic peptide (WNV NS4B 2519-2527)” registered an IC50 of 24.3 µM. Compared with the last substance, the IC50 is about 2.2-fold higher.

The substance “AVV9 synthetic peptide (WNV NS4B 2458-2466)” came in with an IC50 of 2.25 µM.

The next assay has as its target T1, HLA-A*11:01 (Homo sapiens, UniProt P04439, A114D/D185E/E176A/F33Y/L180Q/S129P/T187R).
T1 construct: purchased Pure Protein L.L.C
The experiment in a line: Fluorescence polarization competitive peptide-binding assay. How it is done: Figure 1 Direct epitope discovery of WNV epitope GTL9. (A) RP-HPLC profile of HLA-A*11:01 peptides from uninfected (blue) and WNV-infected (red) cells. (B) MS ion spectra of HPLC fraction 50 from uninfected (black) and infected (red) cells. MS data were recorded for 300 scans. (C) Overlay of the MS/MS fragmentation pattern of ion 466.7 in the infected HPLC fraction 50 (identified as the GTL9 peptide; red) with the MS/MS fragmentation pattern for the GTL9 synthetic peptide (black). (D) Florescence polarization competitive binding assay with the GTL9 synthetic peptide and HLA-A*11:01.
These six WNV peptides fit the reported A*11:01-binding motif. […] The fluorescence polarization assay used to assess A*11:01 binding categorizes peptides with IC50 values <5,000 nM as high affinity. In summary, six WNV ligands were discovered by direct elution from A*11:01, these ligands were sequenced by tandem MS, their sequence was confirmed with synthetic ligands, they bound well to A*11:01, they were of traditional length, and these ligands were consistent with the previously reported A*11:01 motif.
MS ion maps were generated for HPLC fractions containing peptides. Fractions were ionized by using nanoelectrospray capillaries (Proxeon) into a QSTAR elite (Applied Biosystems) electrospray quadrupole time-of-flight mass spectrometer. Peptide sequences were determined manually by using the MASCOT software package (Matrix Science). Peptide binding to HLA-A*11:01 was determined using the florescence polarization method (Pure Protein L.L.C.).
For RVLSLIGLK [RVL9], the IC50 turned out to be 0.334 µM.

Substance KSYETEYPK [KSY9] returned an IC50 of 7.89 µM.

Substance AIIEVDRSAAK [AII11] yielded an IC50 of 11.2 µM.

Substance KNMEKPGLK [KNM9] gave an IC50 of 24.3 µM.

On to GTLTSAINR [GTL9], for which the IC50 turned out to be 1.13 µM.

In turn, AVVVNPSVK [AVV9] yielded an IC50 of 2.25 µM. This IC50 lies about 2-fold higher than the previous one.
